Results on 4 molecules are retold here after patent US7638324 (BURNHAM INSTITUTE FOR MEDICAL RESEARCH, dated 2009).

In one test the target is Bcl-XL (UniProt Q07817 1-233). Kind of test: co-immunoprecipitation with anti-GFP antibody, anti-Bcl-XL immunoblot. The procedure:
(§1) For co-immunoprecipitations and immunoblotting, immunoblotting was performed as described previously (Xu and Reed, supra., (1998); Zhang et al., supra., (2000)). For co-immunoprecipitations, cells were cultured in […] benzocarbonyl Valine Alanine Aspartate fluoromethyl-ketone (zVAD-fmk) to prevent apoptosis. Cells were suspended in lysis buffer (50 mM Tris-HCl, pH7.4; 150 mM NaCl; 20 mM EDTA; 50 mM NaF; 0.5% NP-40; 0.1 mM Na_3VO_4; 20 µg/ml Leupeptin; 20 µg/ml Aprotinin; 1 mM dithiothreitol (DTT); and 1 mM phenylmethylsulfonylfluoride (PMSF). Lysates (0.2 ml diluted into 1 ml final volume of lysis buffer) were cleared by incubation with 15 µl of protein G-Sepharose 4B (Zymed; South San Francisco Calif.) and then incubated with 15 µl of polyclonal anti-GFP antibody (Santa Cruz; Santa Cruz Calif.) and 15 µl of protein G at 4° C. overnight. Beads were then washed 4 times with 1.5 mls lysis buffer before boiling in Laemmli sample buffer and performing SDS-PAGE/immunoblotting.

Another test addresses T1, GFP-Bcl-GS (human, UniProt P42212 1-238 = GFP, limits assumed).
T1 construct: Expressed by transient transfection and immunoprecipitated with polyclonal anti-GFP antibody; also called Bcl-G (short); wild-type Bcl-GS
Kind of test: co-immunoprecipitation from lysates of transiently transfected cells. The procedure: as §1

In test [1] the target is T2, Bcl-GS (yeast two-hybrid construct) (human, UniProt Q9BZR8 1-241).
T2 construct: Used in yeast two-hybrid assays
T2 sequence: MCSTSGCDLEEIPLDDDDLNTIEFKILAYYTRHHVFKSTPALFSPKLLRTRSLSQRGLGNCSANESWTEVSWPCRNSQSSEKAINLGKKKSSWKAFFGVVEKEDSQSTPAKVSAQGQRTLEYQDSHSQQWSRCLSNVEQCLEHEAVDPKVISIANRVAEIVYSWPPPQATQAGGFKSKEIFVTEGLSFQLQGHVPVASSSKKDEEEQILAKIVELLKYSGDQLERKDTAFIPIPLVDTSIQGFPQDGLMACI
Kind of test: yeast two-hybrid.

Sequence of Bcl-XL (Q07817 whole entry): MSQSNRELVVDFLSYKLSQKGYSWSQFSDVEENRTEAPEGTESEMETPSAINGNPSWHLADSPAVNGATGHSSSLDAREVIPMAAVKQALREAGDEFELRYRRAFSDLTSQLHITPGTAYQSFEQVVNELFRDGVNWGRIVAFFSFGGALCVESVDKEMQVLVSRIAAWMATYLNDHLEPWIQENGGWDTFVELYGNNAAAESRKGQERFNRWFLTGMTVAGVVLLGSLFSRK

B1: GFP-Bcl-GS (ΔBH3) (other)
chain: MCSTSGCDLEEIPLDDDDLNTIEFKILAYYTRHHVFKSTPALFSPKLLRTRSLSQRGLGNCSANESWTEVSWPCRNSQSSEKAINLGKKKSSWKAFFGVVEKEDSQSTPAKVSAQGQRTLEYQDSHSQQWSRCLSNVEQCLEHEAVDPKVISIANRVAEIVYSWPPPQATQAGGFKSKEIFVTEGLSFQLQGHVPVASSSKKDEEEQILAGSDTAFIPIPLVDTSIQGFPQDGLMACI
notes: The limits of the deletion would have to be derived from the primers; they are not guessed here; also called GFP-Bcl-GS (DBH3); mutant of Bcl-GS lacking the BH3 domain; not shown: N-terminal EGFP and the short vector linker of pEGFP-C1 (Clontech)
As to B1, the binding result with Bcl-XL is “no binding”.

B2: Bad (other, UniProt Q92934 1-168, looked up)
chain: MFQIPEFEPSEQEDSSSAERGLGPSPAGDGPSGSGKHHRQAPGLLWDASHQQEQPTSSSHHGGAGAVEIRSRHSSYPAGTEDDEGMGEEPSPFRGRSRSAPPNLWAAQRYGRELRRMSDEFVDSFKKGLPRPKSAGTATQMRQSSSWTRVFQSWWDRNLGRGSSAPSQ
Regarding B2, the binding result with GFP-Bcl-GS was “no binding”.

B3: Bak (other, UniProt Q16611 1-211, looked up)
chain: MASGQGPGPPRQECGEPALPSASEEQVAQDTEEVFRSYVFYRHQQEQEAEGVAAPADPEMVTLPLQPSSTMGQVGRQLAIIGDDINRRYDSEFQTMLQHLQPTAENAYEYFTKIATSLFESGINWGRVVALLGFGYRLALHVYQHGLTGFLGQVTRFVVDFMLHHCIARWIAQRGGWVAALNLGNGPILNVLVVLGVVLLGQFVVRRFFKS
B3: the binding result (in test [1]; with GFP-Bcl-GS) was “no binding” in each case.

B4: Bid (other, UniProt P55957 1-195, looked up)
chain: MDCEVNNGSSLRDECITNLLVFGFLQSCSDNSFRRELDALGHELPVLAPQWEGYDELQTDGNRSSHSRLGRIEADSESQEDIIRNIARHLAQVGDSMDRSIPPGLVNGLALQLRNTSRSEEDRNRDLATALEQLLQAYPRDMEKEKTMLVLALLLAKKVASHTPSLLRDVFHTTVNFINQNLRTYVRSLARNGMD
As to B4, the binding result in the test with GFP-Bcl-GS is “no binding”.
